B1: IpY.20: smaller and more stable variant of ALT, SEQ ID NO: 6; tested as liposomal IpY.20 (peptide)
chain: MVSRDQAHLGPKYVGLWDFKSRTDEELSFRAGDVFHVARKEEQWWWATLLDEAGGAVAQGYVPHNYLAERETVESEPAGHAGSAALQDLAA
modifications: liposomal formulation

Experiments:
Type in all cases: cell-based
PDAC cell lines [1] = assay: ROS-Glo assay in PDAC cells
Protocol: (§1) FIGS. 2A-2F. FIGS. 2A and 2B are Western Blots, illustrating results from assays performed with treatment naive cells to analyze the expression levels of p27. Cells were harvested with RIPA buffer supplemented with protease inhibitors. The MCF7-ALT Dox inducible cell line was used as a control. […] Cells were treated with increasing concentrations of IpY.20 for 24h. Viability was measured using the Cell Titer Glo assay (Promega). Viability was calculated relative to untreated control cells. N=4 *p<0.05. […] FIGS. 2D, 2E and 2F are graphs illustrating that IpY.20 induces ROS. Cells were treated with IpY.20 for 24 h. ROS levels were measured using ROS-Glo assay (Promega). % ROS was calculated relative to untreated control cells. N=4 *p<0.05. The MCF7-ALT inducible cell line induced ROS.

PDAC cell lines [2] = assay: Rescue of IpY.20 effect on viability by pretreatment with inhibitors
Protocol: When the less sensitive PDAC lines were treated with IpY.20, pRIPK1 expression, a marker of necroptosis, increased (FIG. 3A). To determine if ROS-dependent induction of pRIPK1 and necroptosis was responsible for IpY.20's effect in PDAC cell lines, cells lines (A-D) were treated with N-acetyl-1-cysteine (5 mM) a ROS inhibitor, Necrostatin-1 (10 μM) which prevents RIPK1 phosphorylation and Caspase-3/7 Inhibitor, for 24 h, followed by IpY.20 for the next 24 h. N=4 *p<0.05.
(§2) When these lines were pre-treated with NAC, Nec-1, or Caspase 3/7 inhibitor followed by IpY.20 treatment, differential results were observed. N=4 *p<0.05 (FIGS. 4A-4D). NAC treatment of BxPC3 cells reduced ROS levels (FIG. 4B), but these cells were rescued by caspase treatment (FIG. 4C). […] Percent viability relative to control plotted in all cases. L3.6 (FIG. 4E), PL45 (FIG. 4F) and Panel (FIG. 4G) were rescued by NEC-1, NAC and caspase inhibition to differing extents. Biomarkers dictating response were determined.

[3] = system: Pancreatic Ductal Adenocarcinoma (PDAC) cell lines; assay: Cell viability (Cell Titer Glo) in PDAC cell lines
Protocol: FIGS. 1A-1D. FIGS. 1A and 1B are respectively a graph and an image showing that PDAC cells are resistant to palbociclib-treatment. Cells were treated with increasing concentrations of palbociclib (PD) for 24 h before analysis for viability (Cell Titer Glo, Promega). N=4 *p<0.05. Control=untreated cells. Viability plotted relative to growth in the presence of control. FIGS. 1C and 1D show PL5 cells treated with increasing concentrations of IpY.20 and E′NP before analysis of Cell Titer Glo analysis.
as §1, with “Cells were treated with IpY.20 for 24 h.” left out, “N=4 *p<0.05. The MCF7-ALT inducible cell line induced ROS.” left out
To test whether PDAC cells might be resistant to CDK4/6 inhibition due to activation of CDK2, experiments were performed. […] Some non-specific liposome toxicity was detected at the high concentrations. […]

pRIPK1 = pRIPK1 expression (marker of necroptosis)
BxPC3 = assay: Caspase-Glo 3/7 Assay for apoptosis; conditions: treated 24 h
Excerpt: as §2

[4] = system: CDK4i-resistant and treatment naive breast cancer cells; assay: Arrest of breast cancer cells
[5] = L3.6, PL45 and Panel, to differing extents
[6] = PDAC lines that increased pRIPK1, pretreatment 24 h, then IpY.20 24 h

| Molecule | ROS levels (PDAC cell lines [1]; BxPC3 cells, pretreatment followed by IpY.20) | rescue from IpY.20 effect (PDAC cell lines [2]; [5]) | rescue from IpY.20 effect (PDAC cell lines [2]; [6]) | sensitivity to treatment ([3]; PL5, Panc1, L3.6 and BXPC3) | viability of CDK4i resistant pancreatic cell lines ([3]; increasing concentrations for 24h, relative to untreated control) | ROS levels (PDAC cell lines [1]; treated 24 h, relative to untreated control cells) | pRIPK1 expression (pRIPK1; Super sensitive PDAC lines) | pRIPK1 expression (pRIPK1; less sensitive PDAC lines) | caspase expression (BxPC3) | ability to arrest cells [4] |
| --- | --- | --- | --- | --- | --- | --- | --- | --- | --- | --- |
| CC(=O)N[C@@H](CS)C(=O)O [NAC, N-acetyl-1-cysteine] | reduced | rescued | rescued | – | – | – | – | – | – | – |
| CN1C(=O)C(Cc2c[nH]c3ccccc23)NC1=S (stereo not drawn) [Nec1, Necrostatin-1] | – | rescued | rescued | – | – | – | – | – | – | – |
| B1 | – | – | – | super sensitivity | reduces viability | induces ROS | did not exhibit induction | increased | strongly induced | behaved similarly to IpY.1 |

From patent publication US20260234204A1, “BRK PEPTIDES AND METHODS OF USE” (Concarlo Therapeutics, Inc., priority 2023, published 2026)
